B1: SEQ ID NO: 810: inducible system polypeptide, probably Table 20 (GID-GAI) (protein)
chain: MIEKKKSFAKGMGVKSTLVSGSKVYMTTFAEGSDARLEKIVEGDSIRSVNEGEAFSAEMADKNAGYKIGNAKFSHPKGYAVVANNPLYTGPVQQDMLGLKETLEKRYFGESADGNDNICIQVIHNILDIEKILAEYITNAAYAVNNISGLDKDIIGFGKFSTVYTYDEFKDPEHHRAAFNNNDKLINAIKAQYDEFDNFLDNPRLGYFGQAFFSKEGRNYIINYGNECYDILALLSGLRHWVVHNNEEESRISRTWLYNLDKNLDNEYISTLNYLYDRITNELTNSFSKNSAANVNYIAETLGINPAEFAEQYFRFSIMKEQKNLGFNITKLREVMLDRKDMSEIRKNHKVFDSIRTKVYTMMDFVIYRYYIEEDAKVAAANKSLPDNEKSLSEKDIFVINLRGSFNDDQKDALYYDEANRIWRKLENIMHNIKEFRGNKTREYKKKDAPRLPRILPAGRDVSAFSKLMYALTMFLDGKEINDLLTTLINKFDNIQSFLKVMPLIGVNAKFVEEYAFFKDSAKIADELRLIKSFARMGEPIADARRAMYIDAIRILGTNLSGGSGSGSSGGSGTMKRDHHHHHHQDKKTMMMNEEDDGNGMDELLAVLGYKVRSSEMADVAQKLEQLEVMMSNVQEDDLSQLATETVHYNPAELYTWLDSMLTDLNPKKKRKV
B2: SEQ ID NO: 813: inducible system polypeptide, probably Table 20 (GID-GAI) (protein)
chain: MAASDEVNLIESRTVVPLNTWVLISNFKVAYNILRRPDGTFNRHLAEYLDRKVTANANPVDGVFSFDVLIDRRINLLSRVYRPAYADQEQPPSILDLEKPVDGDIVPVILFFHGGSFAHSSANSAIYDTLCRRLVGLCKCVVVSVNYRRAPENPYPCAYDDGWIALNWVNSRSWLKSKKDSKVHIFLAGDSSGGNIAHNVALRAGESGIDVLGNILLNPMFGGNERTESEKSLDGKYFVTVRDRDWYWKAFLPEGEDREHPACNPFSPRGKSLEGVSFPKSLVVVAGLDLIRDWQLAYAEGLKKAGQEVKLMHLEKATVGFYLLPNNNHFHNVMDEISAFVNAECSGGSGSGSSGGSGTAKFVEEYAFFKDSAKIADELRLIKSFARMGEPIADARRAMYIDAIRILGTNLSYDELKALADTFSLDENGNKLKKGKHGMRNFIINNVISNKRFHYLIRYGDPAHLHEIAKNEAVVKFVLGRIADIQKKQGQNGKNQIDRYYETCIGKDKGKSVSEKVDALTKIITGMNYDQFDKKRSVIEDTGRENAEREKFKKIISLYLTVIYHILKNIVNINARYVIGFHCVERDAQLYKEKGYDINLKKLEEKGFSSVTKLCAGIDETAPDKRKDVEKEMAERAKESIDSLESANPKLYANYIKYSDEKKAEEFTRQINREKAKTALNAYLRNTKWNVIIREDLLRIDNKTCTLFRNKAVHLEVARYVHAYINDIAEVNSYFQLYHYIMQRIIMNERYEKSSGKVSEYFDAVNDEKKYNDRLLKLLCVPFGYCIPRFKNLSIEALFDRNEAAKFDKEKKKVSGNSGSGPKKKRKVPKKKRKV
B3: SEQ ID NO: 1206: inducible system polypeptide, probably Table 22 (reader and repressible protease) (protein)
chain: MAPKKKRKVGIHGVPAASSDEEEARELIERAKEAAERAQEAAERTGDPRVRELARELKRLAQEAAEEVKRDPSSSDVNEALKLIVEAIEAAVDALEAAERTGDPEVRELARELVRLAVEAAEEVQRNPSSSDVNEALHSIVYAIEAAIFALEAAERTGDPEVRELARELVRLAVEAAEEVQRNPSSRNVEHALMRIVLAIYLAEENLREAEESGDPEKREKARERVREAVERAEEVQRDPSGWLNHSGGSGSGSSGGSGTAKFVEEYAFFKDSAKIADELRLIKSFARMGEPIADARRAMYIDAIRILGTNLSYDELKALADTFSLDENGNKLKKGKHGMRNFIINNVISNKRFHYLIRYGDPAHLHEIAKNEAVVKFVLGRIADIQKKQGQNGKNQIDRYYETCIGKDKGKSVSEKVDALTKIITGMNYDQFDKKRSVIEDTGRENAEREKFKKIISLYLTVIYHILKNIVNINARYVIGFHCVERDAQLYKEKGYDINLKKLEEKGFSSVTKLCAGIDETAPDKRKDVEKEMAERAKESIDSLESANPKLYANYIKYSDEKKAEEFTRQINREKAKTALNAYLRNTKWNVIIREDLLRIDNKTCTLFRNKAVHLEVARYVHAYINDIAEVNSYFQLYHYIMQRIIMNERYEKSSGKVSEYFDAVNDEKKYNDRLLKLLCVPFGYCIPRFKNLSIEALFDRNEAAKFDKEKKKVSGNSGSGPKKKRKV
B4: SEQ ID NO: 391: PV1-ABI-L1-Cas13-508C-BGHpA (protein)
chain: MPLYGFTSICGRRPEMEDAVSTIPRFLQSSSGSMLDGRFDPQSAAHFFGVYDGHGGSQVANYCRERMHLALAEEIAKEKPMLCDGDTWLEKWKKALFNSFLRVDSEIGSVAPETVGSTSVVAVVFPSHIFVANCGDSRAVLCRGKTALPLSVDHKPDREDEAARIEAAGGKVIQWNGARVFGVLAMSRSIGDRYLKPSIIPDPEVTAVKRVKEDDCLILASDGVWDVMTDEEACEMARKRILLWHKKNAVAGDASLLADERRKEGKDPAAMSAAEYLSKLAIQRGSKDNISVVVVDLKDYKDDDDKSGGSGSGSSGGSGTAKFVEEYAFFKDSAKIADELRLIKSFARMGEPIADARRAMYIDAIRILGTNLSYDELKALADTFSLDENGNKLKKGKHGMRNFIINNVISNKRFHYLIRYGDPAHLHEIAKNEAVVKFVLGRIADIQKKQGQNGKNQIDRYYETCIGKDKGKSVSEKVDALTKIITGMNYDQFDKKRSVIEDTGRENAEREKFKKIISLYLTVIYHILKNIVNINARYVIGFHCVERDAQLYKEKGYDINLKKLEEKGFSSVTKLCAGIDETAPDKRKDVEKEMAERAKESIDSLESANPKLYANYIKYSDEKKAEEFTRQINREKAKTALNAYLRNTKWNVIIREDLLRIDNKTCTLFRNKAVHLEVARYVHAYINDIAEVNSYFQLYHYIMQRIIMNERYEKSSGKVSEYFDAVNDEKKYNDRLLKLLCVPFGYCIPRFKNLSIEALFDRNEAAKFDKEKKKVSGNSGSGPKKKRKVPKKKRKV
B5: SEQ ID NO: 814: inducible system polypeptide, probably Table 20 (GID-GAI) (protein)
chain: MIEKKKSFAKGMGVKSTLVSGSKVYMTTFAEGSDARLEKIVEGDSIRSVNEGEAFSAEMADKNAGYKIGNAKFSHPKGYAVVANNPLYTGPVQQDMLGLKETLEKRYFGESADGNDNICIQVIHNILDIEKILAEYITNAAYAVNNISGLDKDIIGFGKFSTVYTYDEFKDPEHHRAAFNNNDKLINAIKAQYDEFDNFLDNPRLGYFGQAFFSKEGRNYIINYGNECYDILALLSGLRHWVVHNNEEESRISRTWLYNLDKNLDNEYISTLNYLYDRITNELTNSFSKNSAANVNYIAETLGINPAEFAEQYFRFSIMKEQKNLGFNITKLREVMLDRKDMSEIRKNHKVFDSIRTKVYTMMDFVIYRYYIEEDAKVAAANKSLPDNEKSLSEKDIFVINLRGSFNDDQKDALYYDEANRIWRKLENIMHNIKEFRGNKTREYKKKDAPRLPRILPAGRDVSAFSKLMYALTMFLDGKEINDLLTTLINKFDNIQSFLKVMPLIGVNSGGSGSGSSGGSGTMKRDHHHHHHQDKKTMMMNEEDDGNGMDELLAVLGYKVRSSEMADVAQKLEQLEVMMSNVQEDDLSQLATETVHYNPAELYTWLDSMLTDLNPKKKRKV

The molecules below were run on mCherry expression in HEK293 FT cells (assay: Inducible split RfxCas13d (GIB, RAP, ABA, Dano, GRZ CID domains; NES/NLS variants) mCherry knockdown, leakiness and inducibility). Conditions: inducible polypeptide systems of Tables 18-22.
Assay type: cell-based
Description: FIG. 6A-6C is a series of schematics and graphs showing that split RfxCas13d's reconstituted and functioned to knockdown mCherry expression in HEK293 FT cells FIG. 6A is a schematic showing split sites selected throughout RfxCas13d sequence. FIG. 6B is a bar graph showing mCherry expression under 4 conditions for gibberellin-inducible, rapalog-inducible, and abscisic acid-inducible inducible split Cas13d designs. In FIG. 6B and FIG. 6C, the left-right order of the bars for each split site is the same as the left-right order of the legend for each bar graph.
FIG. 7A-7E is a series of schematics and graphs showing a functional and inducible split Cas13d design. FIG. 7A is a bar graph showing additional split sites selected in RfxCas13d and tested with GIB CID domains. […] In FIG. 7A and FIG. 7C, the left-right order of the bars for each split site is the same as the left-right order of the legend. FIG. 7B is a schematic showing the design to compartmentalize splits. Compartmentalizing moieties facilitates the reduction of leakiness. […] FIG. 7D is a schematic showing the experiment flow for testing reversibility of the inducible split Cas13d's.
FIG. 8A-8B is a series of schematics and graphs showing that split RfxCas13d's reconstituted upon drug-induced dimerization and knocked down mCherry expression in HEK293 FT cells. FIG. 8A is a bar graph showing quantification of system performance. The left-right order of the bars for each split site is the same as the top-down order of the legend. […] System performance in leakiness score (left axis) and induced activity (right axis) by GIB, RAP, ABA, and Dano-inducible split Cas13d designs.
FIG. 10A-10B is a series of schematics and graphs showing performance optimization through separating split Cas13d moieties in different cellular compartments. […] The left-right order of the bars for each bar graph is the same as the top-down order of the legend.
FIG. 11 is a series of schematics and graphs showing the testing of reversed orientation (dark grey dots) of CID domains with respect to split Cas13d pieces against original orientations (light grey dots) designed for GIB, ABA, Dano, and GRZ inducible systems.
In the case of B1, the “performance in the tested conditions” value is reported as “highest performance”. In the case of B2, the “performance in the tested conditions” value is reported as “highest performance”. With B3 the “performance in the tested conditions” value was “highest performance”. With B4 the “performance in the tested conditions” value was “highest performance”. In the case of B5, the “performance in the tested conditions” value is reported as “highest performance”.
